# “Also recorded” adds a separate entry of the source.
# Key:
# recombinant rat GRP94 = recombinant rat GRP94 (Rattus norvegicus, UniProt Q66HD0); assay: ELISA binding to recombinant rat GRP94; conditions: high specificity stated for human and rat antigens
# Procedure: (§1) Each well of 96-well plates was coated with 0.1 μg of recombinant human GRP94 (rhGRP94), blocked with 3% (w/v) bovine serum albumin (BSA) in phosphate buffered saline (PBS) for 2 hours at 37° C., and incubated with 100 μL of GRP94 targeting IgG (20 μg/mL) for 2 hours at 37° C. The plates were washed thrice with 0.05% PBS-T, and 100 μL of a 500:1 dilution of the secondary antibody anti-human Fc Ab (Sigma-Aldrich) was added to each well. Incubation at 37° C. for 1 hour was followed by three rounds of washing with 0.05% PBS-T. Then, 100 μL of 3,3′,5,5′-tetramethylbenzidine (1-step ultra TMB) substrate solution was added to each well. Finally, optical densities were measured at 450 nm using a microplate reader (Synergy H1, BioTek).
# (§2) After 96-well plates were coated with BSA, recombinant human GRP94, recombinant rat GRP94, and recombinant monkey GRP94, their binding affinity for each antibody (B5, E5, 2H5, or 3G7) was measured by ELISA.
# recombinant monkey GRP94 = recombinant monkey GRP94 (Macaca fascicularis, UniProt Q4R520); assay: ELISA binding to recombinant monkey GRP94
# Procedure: as §1, §2
# HCT8 cells = assay: In vitro CRC proliferation assay, HCT8; format: cell-based, human; conditions: 20 μg/mL; for cell index at the end point: 72 hours, MOCK 4.8±0.25; for cell growth inhibitory ability: end point, relative to the control PBS
# Procedure: (§3) The four anti-GRP94 human IgG antibodies B5, E5, 2H5, and 3G7 of the present disclosure were examined in vitro for effect on CRC cell proliferation. […] The culture medium was removed by suction and the cells were washed with 10 mL of phosphate buffered saline (hereinafter PBS). After removal of PBS by suction, the cells were treated 2 mL of TrypLE Express Enzyme at 37° C. for 3 minutes in a 5% CO2 incubator. Thereafter, the cells were added with 8 mL of the culture medium, transferred to 15-mL tube, and centrifuged at 500×g for 5 minutes. After removal of the supernatant, the cells were suspended in the culture medium. From a small portion of the cell suspension, the cells were counted using the Countess II Automated Cell Counter. […] The 96-well plates were mounted on the Incucyte Zoom system. With the microscope magnification set at 4×, images were collected at intervals of 2 hours for 72 hours. From the collected images, cell growth was monitored using the IncuCyte FLR live content imaging system (Essen Bioscience, Ann Arbor, MI, USA).
# LoVo cells = assay: In vitro CRC proliferation assay, LoVo; format: cell-based, human; conditions: 20 μg/mL; for cell index at the end point: 72 hours, MOCK 3.76±0.19; for cell growth inhibitory ability: end point, relative to the control PBS
# Procedure: as §3
# [1] = target: T1, rhGRP94 CTD fragment (part 4, Glu 602-Glu 799) (Homo sapiens, UniProt P14625); assay: Epitope comparison ELISA, rhGRP94 fragment part 4; format: binding; conditions: antibody 1 μg/mL, 100 ng fragment
# T1 construct: Part; 4 (Glu 602-Glu 799) of the human GRP94 gene (Gene ID: 7184); made in house; host or cells: Expi293 expression system (pcDNA 3.4)
# Description: To determine which portion (or domain) of the GRP94 protein is bound by the developed antibodies, GRP94 fragments part. 1 and part. 4 were constructed wherein part. 1 was composed of the N-terminal domain (NTD), the Ca^2+ binding domain, the middle domain (MD), and the C-terminal domain (CTD) while part. 4 was derived from part. 1 by cutting off the NTD, the Ca^2+ binding domain, and the MD. In brief, Part. 1 (Asp 22-Glu 799) and Part. 4 (Glu 602-Glu 799) of the human GRP94 gene (Gene ID: 7184) were synthesized and subcloned into pcDNA 3.4 (Invitrogen) mammalian expression vector to finally recombinant DNAs. Using the Expi293 expression system (Invitrogen), the proteins were expressed and purified. The purified antigens part. 1 and part. 4 were analyzed for molecular weight by SDS-PAGE.
# Next, ELISA was carried out to examine whether the four antibodies of the present disclosure bind to part 1 and part 4. First, 100 ng of each of the rhGRP94 fragment parts 1 and 4 was fixed to a high binding plate by incubation at 4° C. for 14 hours (overnight binding, 14 hrs). The same amount of BSA was used as a negative control. Then, the plate was blocked with 3% BSA, followed by incubation at 37° C. for 2 hours with 100 μL containing each of the anti-GRP94 antibodies (B5, E5, 2H5, and 3G7) of the present disclosure at a density of 1 μg/mL. After three rounds of washing with PBS-T, the plate was treated at 37° C. for 1 hour with a 5000:1 dilution of anti-Fc-HRP (Catalog #31423 Invitrogen). Color development was induced using 1-step-ultra TMB (Invitrogen) for 10 minutes and then terminated with […] (2N). Absorbance at 450 nm was read.
# [2] = In vivo hepatotoxicity and nephrotoxicity in colorectal xenograft model; design: species or system Balb/c nude mice; conditions: mouse, 10 mg/kg
# Procedure: To assay the four antibodies of the present disclosure for in vivo hepatotoxicity and nephrotoxicity, the same xenograft model as in Example 11 weighed every week. After six weeks of the experiment, GOT (glutamic oxaloacetic transaminase), GPT (glutamate pyruvate transaminase), and TBIL (total bilirubin) were measured for hepatotoxicity assay while BUN (blood urea nitrogen) and CRE (creatinine) were measured for nephrotoxicity assay. The results are depicted in FIGS. 27a and 27b.
# T1 sequence (P14625 602-799): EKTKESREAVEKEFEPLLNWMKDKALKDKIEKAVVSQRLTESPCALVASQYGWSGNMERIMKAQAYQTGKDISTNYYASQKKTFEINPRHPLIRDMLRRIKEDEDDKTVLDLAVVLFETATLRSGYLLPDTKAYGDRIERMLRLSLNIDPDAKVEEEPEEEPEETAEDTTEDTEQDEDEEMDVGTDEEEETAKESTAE
# recombinant rat GRP94, sequence (Q66HD0 22-804): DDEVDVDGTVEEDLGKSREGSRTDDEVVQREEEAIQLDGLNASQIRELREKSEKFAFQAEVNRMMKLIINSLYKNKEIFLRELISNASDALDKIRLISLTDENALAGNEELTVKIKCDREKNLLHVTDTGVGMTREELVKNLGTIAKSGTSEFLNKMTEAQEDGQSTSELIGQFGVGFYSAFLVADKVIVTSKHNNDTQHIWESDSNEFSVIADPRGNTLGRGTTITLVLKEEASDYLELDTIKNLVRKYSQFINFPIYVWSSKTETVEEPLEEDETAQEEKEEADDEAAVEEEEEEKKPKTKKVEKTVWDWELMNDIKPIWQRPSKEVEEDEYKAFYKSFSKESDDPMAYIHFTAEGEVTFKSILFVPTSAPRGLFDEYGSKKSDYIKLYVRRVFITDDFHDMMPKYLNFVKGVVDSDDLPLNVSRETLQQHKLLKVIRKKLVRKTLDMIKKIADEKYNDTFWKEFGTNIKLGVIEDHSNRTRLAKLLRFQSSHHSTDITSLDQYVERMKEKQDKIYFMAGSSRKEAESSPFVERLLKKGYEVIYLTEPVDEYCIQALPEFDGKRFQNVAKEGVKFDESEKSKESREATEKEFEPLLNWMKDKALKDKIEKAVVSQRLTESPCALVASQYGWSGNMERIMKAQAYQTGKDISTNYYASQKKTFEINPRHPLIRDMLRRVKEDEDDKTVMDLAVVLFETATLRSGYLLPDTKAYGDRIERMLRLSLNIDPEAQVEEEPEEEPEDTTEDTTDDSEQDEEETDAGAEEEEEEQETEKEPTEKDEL
# recombinant monkey GRP94, sequence (Q4R520 22-804): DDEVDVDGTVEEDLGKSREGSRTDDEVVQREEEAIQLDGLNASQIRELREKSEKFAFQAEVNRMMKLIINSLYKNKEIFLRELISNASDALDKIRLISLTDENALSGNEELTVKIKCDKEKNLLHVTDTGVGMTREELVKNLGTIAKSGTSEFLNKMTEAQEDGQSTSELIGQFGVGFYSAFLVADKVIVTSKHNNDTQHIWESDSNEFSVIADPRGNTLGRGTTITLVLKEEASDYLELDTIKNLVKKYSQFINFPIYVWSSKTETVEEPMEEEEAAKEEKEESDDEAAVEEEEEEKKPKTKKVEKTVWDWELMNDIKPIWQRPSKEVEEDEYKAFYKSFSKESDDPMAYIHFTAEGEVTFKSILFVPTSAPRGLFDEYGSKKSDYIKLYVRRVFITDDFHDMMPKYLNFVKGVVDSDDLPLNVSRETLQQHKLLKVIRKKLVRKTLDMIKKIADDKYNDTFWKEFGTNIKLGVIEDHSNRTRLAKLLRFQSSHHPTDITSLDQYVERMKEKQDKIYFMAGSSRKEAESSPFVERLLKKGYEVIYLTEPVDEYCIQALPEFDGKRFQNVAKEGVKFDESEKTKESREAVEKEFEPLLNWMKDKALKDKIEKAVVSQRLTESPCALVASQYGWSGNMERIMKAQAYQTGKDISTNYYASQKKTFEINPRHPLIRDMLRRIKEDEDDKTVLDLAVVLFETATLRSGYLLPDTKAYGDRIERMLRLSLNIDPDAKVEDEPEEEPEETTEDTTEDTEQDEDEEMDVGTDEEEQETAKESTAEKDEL
binding to recombinant rat GRP94 (recombinant rat GRP94),binding to recombinant monkey GRP94 (recombinant monkey GRP94),binding to part 4 (Glu 602-Glu 799) [1],Molecule,cell index at the end point (HCT8 cells),cell growth inhibitory ability (HCT8 cells),cell index at the end point (LoVo cells),cell growth inhibitory ability (LoVo cells),changes in body weight [2],"changes in serum levels of liver and kidney functional indices (GOT, GPT, TBIL, BUN, and CREA) [2]"
bind,bind,did not bind,"B5: anti-GRP94 human IgG antibody; CDRs SEQ ID NOS: 1 to 6, VH SEQ ID NO: 7, VL SEQ ID NO: 8 (antibody, V domains shown, Amino acid sequence of heavy chain variable of GRP94 B5; Amino acid sequence of light chain variable of GRP94 B5) VH: EVQLLESGGGLVQPGGSLRLSCAASGFTFSNYYMSWVRQAPGKGLEWVSGIYPNSGSTYYADSVKGRFTISRDNSKNTLYLQMNSLRAEDTAVYYCARDPLHPARFPFDYWGQGTLVTVSS VL: QSVLTQPPSASGTPGQRVTISCTGSSSNIGNNAVSWYQQLPGTAPKLLIYADSHRPSGVPDRFSGSKSGTSASLAISGLRSEDEADYYCGAWDASLNAYVFGGGTKLTVL",3.15±0.21,excellent inhibitory activity,2.69±0.04,statistically significant; also recorded: excellent inhibitory activity,no significant changes,no significant changes
bind,bind,did not bind,"3G7: anti-GRP94 human IgG antibody; CDRs SEQ ID NOS: 25 to 30, VH SEQ ID NO: 31, VL SEQ ID NO: 32 (antibody, V domains shown, Amino acid sequence of heavy chain variable of GRP94 3G7; Amino acid sequence of light chain variable of GRP94 3G7) VH: EVQLLESGGGLVQPGGSLRLSCAASGFTFSNYSMSWVRQAPGKGLEWVSGIYYGSGNKYYADSVKGRFTISRDNSKNTLYLQMNSLRAEDTAVYYCAKNLASFDYWGQGTLVTVSS VL: QSVLTQPPSASGTPGQRVTISCSGSSSNIGSNSVNWYQQLPGTAPKLLIYSNSHRPSGVPDRFSGSKSGTSASLAISGLRSEDEADYYCGTWDSSLSGYVFGGGTKLTVL",3.40±0.16,excellent inhibitory activity,2.87±0.08,statistically significant; also recorded: excellent inhibitory activity,no significant changes,no significant changes
bind,bind,did not bind,"E5: anti-GRP94 human IgG antibody; CDRs SEQ ID NOS: 9 to 14, VH SEQ ID NO: 15, VL SEQ ID NO: 16 (antibody, V domains shown, Amino acid sequence of heavy chain variable of GRP94 E5; Amino acid sequence of light chain variable of GRP94 E5) VH: EVQLLESGGGLVQPGGSLRLSCAASGFTFSNYAMSWVRQAPGKGLEWVSGISSSSGSTYYADSVKGRFTTSRDNSKNTLYLQMNSLRAEDTAVYYCARDRHPFSPNWFDYWGQGTLVTVSS VL: QSVLTQPPSASGTPGQRVTISCSGSPSNIGSNTVTWYQQLPGTAPKLLIYADSHRPSGVPDRFSGSKSGTSASLAISGLRSEDEADYYCASWDDSLNGYVFGGGTKLTVL",3.33±0.31,excellent inhibitory activity,2.73±0.22,statistically significant; also recorded: excellent inhibitory activity,no significant changes,no significant changes

# Source: US12448436B2, “Antibody specifically binding to GRP94 or antigen-binding fragment thereof, and uses thereof” (KOOKMIN UNIVERSITY INDUSTRY ACADEMY COOPERATION FOUNDATION, priority 2020, dated 2025)
